47 sequences from the NTF2 design screens of Basanta et al. (2020) can be followed below.

The data set is described as follows: protease stability score; higher = more stable; yeast display proteolysis, trypsin and chymotrypsin.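 Also: relative to predicted unfolded state with 0 unfolded-like and 1 meaning tenfold more protease.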
On to “DERDEHSRHVAELWLQSMETGDWEHDRRLLDPNMKFEAPNHSLHGRDSYVETMRKIKNLVIHDTKIEHYEVQGDKAHVQMRIDVIVGDKRTWVEVRVEIVVVDGVLHSLRIEIE”, for which the protease stability score was found to be 0.777. With “DERDELLEHVIKLHQDALRTGDEHTLTELMDPHVRVIIGDKHHHGWESITKYLRELRFHSHEVHIDHVHIFNGRIHADITLRGTHHFNGRTFHDTHKVELINTKINGKWTIESLIIR” the figure was 1.15; with “DERDELVEIVFRLYLRLLTTGDEQEWHHLADPDTRLHIGDKDFHGRENVNKHRRDNLERVKGIKLRDVKITQVHLIDGVLHIDIRLDVEYDGRRTELKVRVISEKVDGKWFIKSIIIE”, 1.44. With “DERDELVRQLMEWLVRAYITGDFETLKNLFDPNAKVRVNGRELIGMETFWQLLWHLRFTDHKIDSVEMQGEKVTVNVTLFIDVNGREETKKSHLIFVVVNGRLKSMDFRYE” the figure was 1.66; with “DERDEMSRHLVRLWIRLYRTGDWKELYDNLDPNARLIIGDKEYHGREEVVEIFLELAKRFKNVKVEFKEIHFQGDKMTLREEVRQGDWRVEVIIKVEFIDGKLHHVQIIFG”, 2.75; with “DERDEMTDHALQRVHEMLLTGDERLLSELFDPNARSQIGDKHVHGRDEVAKTFTEQLEKLGVDHVHFRSVDIQGEKLIIHMHFRVGDKHFQVIIIIVKVNGRWYWTNMHVILH”, 1.1. With “DERDEQAEEAMKIWIHSVQTGNEDLLRRLVDPHVRITVGDKEIHGREQFAEYYHRLVTELRIHIHIHRITVINGQVHSHVEIRIQIGDKEISFETRMFILKVDGVWLFKREEVT” the figure was 0.744; with “DERDERLTEFLELYFKLWFTGDEDTFAHLADPNTRSVFNGKWIHGMESYSEWVEKHMRHLRFKDMKIRDSRVVDGQIHMNTEVEGEVNGQRYRVETRIILDVIDGRIKEVRLHIH”, 1.24. In turn, “DERDESLKNIFELLERILETGDEDDSSKLADPHTRMHWNGKELHGRELYADLFDRLLRELGVDHVRLKIHEVRIQGDKIRMDGTLHLIQGDKEERRRVHLVAHKINGRWHIKQVSIN” came in with a protease stability score of 1.26. As for “DERDEVLEDTARRVLEWLTTGNWEELAKYADPNVKNDINGRIDHGREEMSRRIREELHKVKNLKFNITYFDIIGDKVHFWGTLHYDGRTMETHIHIEVVDGRLHHMQFEIK”, the figure is 0.983; as for “DERDEYLHEWTRLLIELFETGNFEFLVEMMDPNVQIDIGDKHFIGWELAVHFLEEFLRQFKNARWEITRFRRYDGRIEMDTIMRINGREIKVKIIVIVIDGRVKSRHEEYR”, 0.595. Turning to “DERDREVHLASELLHRIVRTGNEEVFEDYLDPNVRVRVNGVESWGMDSFKHWLKEIRIHSHEVDHFDVIGDKLHFDTRVDGEFDGRRDIYKSEVHAEKINGRWIFKIVIFR”, the protease stability score amounted to 1.19. With “DEREDEVRLATEHVERILQTGDEELFRHFVDPRVRMDYNGKDVHGREVILEWIVKIKNLTVRIDDVEVQGDKMLIRSHWTIGDKQHHLRIIATKINGRWESTSVHIH” the figure was 1.02; with “DEREEASERMAELIVHLFETGDEDLIRRMVDPHVRWEFNGREIMGRELTTHVLHEIYHRVKNIRYRIESLDIQGDWLLVNSRLHVNGRTIEIHLIVEKVNGRWTLRELIVKVD”, 1.65. “DEREEDAREAEEIILEDLRTGDWERISRNFDPNVRMHVGDKKYHGREDAIREIKRLMSDMGIKHHSITDSRLQGEWLFLHVEVHFNGRTHDVEIIMIKVNGKWVFKEVRIG” came in with a protease stability score of 1.99. As for “DEREEEAERILREWIKAVETGDFEQIMRYLDPNVRIIVNGKHHHGREILVHLIIRFLRELGADHITFHHDRIHLYDGVLVIDIHLEIRQGDKRYEFHEEIYIIKVNGRWIVRRVIIR”, the figure is 2.8; as for “DEREEEAERIMRLFQEFERTGDEDMLRHLVDPDARWVVGDKFQHGWHHFHRLLHHLRVRDLKPKSLHIDVQGDKVEVILHQEMDGEINGKRVIYHVVVIIIVNKFNGRWRNETVEVRFH”, 0.843; as for “DEREEEARKWIELFLRHLLTGDEDSLQELADPHTRNIVGDKDLIGWRFMIKYVRDVRERFDHIEFHITRMEVQGDKVRVDVRIINIVGDKHFEIESHIVTEKINGKWRLKSMELR”, 1.51. With “DEREEELHHMLEVLEFAFHTGDFEKLSKMFDPHVRIDVNGQELHGWKHAHEHIEDLFRKVKNIRLEFRDIRFQGDKIDIDGIMIFNGVRHEVKIITVKVNGRWLWRSINIH” the figure was 2.33. As for “DEREEEMQRIMEDFIRAWSTGDEKRLKELIDPRDRMIINGKERHGMEEWKTLWETLGINYIDIEHVHLQGEKARIHGTSKFNGRHHEVRIEIRVVDGRFTEVHVDII”, the figure is 1.78; as for “DEREEESERWVRLLLHYLLTGDFRRIEELVDPNARSIIGDKRHHGREIVVEWMTRYKNARVEVKDFHIQGDKLQLHVEVQIDGRTFKLDIELYKVNGKWLLRTLHVEEL”, 1.44; as for “DEREEESKRATEKVTRDIHTGDEDLHRHLLDPNAKLVFNGREFVGREEVEKILKWFLDRAGVDKINMTIHDVRVVDGRIKLDGRNNINGVEYTVIWISEKYNGRWFDRMIIFS”, 0.493.

“DEREEFIHIAIHLLIHVDRTGDEDTYRKMMDPTTKLEVNGVKYIGRQEVIKFLRHIRIDSQDIKRWELVGDKVDLDVHVDGDVNGRRVREDRQIHLWKVDGRWVLEKIEYK” yielded a protease stability score of 0.955. With “DEREEFVLSMAELWIHAVLTGDEELERQLIDPHARNNINGRTIHGMEMFNKFWIRLLQEIRFEIEIRRFHIQGEKMHFDGVLRLRYDGREEVLRVHVEIVIVDGRLHEVHIKIK” the figure was 1.33; with “DEREEHAEEIFRELIHWMETGDEKKMRRYFDPHARLEVGDKEFIGREKISEWMVELRLKDHKERHFDVVNGVAEIHGVMDGIIDGRRHRTEVIIDINIINGKFHRIRIIVK”, 1.21; with “DEREEHHEENARLLLEQFKTGNWDFLRSLADPNVQHNWDGRKSHGRESMVRLLIDHIRKVKGMRTEEKEVEFQGDKVILHGRVNINGREIEVIFILEVVDGRIKSLHIDFR”, 0.697. With “DEREEIAKHLLDLLMHFSKTGDWKKIEDLFDPNTRIHINGVEHVGMEEIARHISEWRIHSIHIKHLDYQGEFIHMDGELDVEVNGRRHKTRMHIIVVKYNGRWLIHHIEVH” the figure was 2.03; with “DEREEIIRKALELFIFSMKTGDEHTLTELLDPNVRLLVGDKEFHGREVFHILIQQFKNIRVEHFEHKDWYEQGDKMRITGRLTFRQGDKRTEIDTTLIILKINGRWIMHDIVIS”, 2.17; with “DEREELAEHMIRLLTERLITGDERIEQELADPNVRFELDINGKSVDTHGMENVLEWIRKWYEHFGVTNFDLRIHRIRVIGEYAHNDGEIIQGDKTRRVHIRMVVINGRVHEVIIHVR”, 1.22. With “DEREELDEHWFRLQFQAMETGDENLVRDNLDPHVKVVVGDKEFVGRHYAIRLFHDLGVDHLVKKSEDRQGEKVIVHGRLDIGDKRHEIVLIIRKIDGKWVVHEIIIR” the figure was 1.35; with “DEREELIQRFLEMLIHLYLTGDEDWFLRMADPNARLHWNGKDRHGREIILEELIRLLRRFDHVRIDVKKFEVQGDKVIADGLEIYTQGDKRIEVDTKIVLTTVNGKLKTLVWHID”, 0.642; with “DEREELLRRWTEEFLDVFHTGDPKETMDMVDPHARIIVIINGRTIEDHGWEHVKILLEQIRVHDFHLTDVRVVNGKVRIDGRYDGYVNGQRVDHHVIIINVVVDGRTHTLLIEIR”, 0.804.

In turn, “DEREELSKHITERFIRSVQTGDERVLKELIDPHARVIVDGRRFIGRHVWVKILKDLGIDHLEIEHVDLIGDKARIDSRVDVDGQEHNVKIHLEVINGRIHWIEERIK” showed a protease stability score of 1.04. “DEREELVTRFWKFFVEASRTGDWRKLEDRADPHVRLHIDGVDLHGREEFAEEHRRHLKKFKNVKIHYEIHDMDIQGEKVHVDYRIRLDIGDKRTENIIRMDIVKIDGKWLIQEMHVD”: the protease stability score turned out to be 0.89.

Consider “DEREEMSRHMINLWNRHLETGDEDRISKLADPHVKVTNEDEEHVGRESAERFVRLMGFDHVHLHDIHIQGNKVISTVEIRIDGQTYQSDVVALKVDGKWKVKNVHIH”, for which the protease stability score turned out to be 0.711. With “DEREEMVERFLTEWLRSLVTGDWEDSEKLFDPNVRIHVNGREFHGRHEAIKHFHELRIHKIELKSIDIQGNKAHVDVEVDGNVNGQNRIIKVNLFFKKVNGRWYFEQVEIH” the figure was 1.24; with “DEREERNKQISELLWHALLTGNWEMLQHLADPHVRVDINGVDLHGRELLVKHLKKFGVDHSRHHDLEIQGEKLIIRGEVEVNGKRIDVEIRIEVIDGKVKHVEVHEN”, 1.24; with “DEREERSRHQMEWLWHLMITGDERLLEELADPHAKIEVGDKDFHGRHTLIEIIREHLQRVKNVRLEFREIEIQGDKIIIRGKLHIGDKEKDIIVIIVVVNGRLKSFKLEVH”, 1.19. As for “DEREEWVERIERRLKEAIRTGDEHTLSKNMDPDAKLDINGVDLIGWERVIDFLRELRKELGVDKIHFRVESRRIIGDKAELDTRLHVNGKHHDTHVIIEKFNGVWSIHSLHVR”, the figure is 1.15. “DEREHDLRRAVHIHRELMMTGDESNFLSYADPNTRLEVDGQEVVGREEVFKWITNVLSRHGVELKDIRVKTMDHQGNKLILHVEIRTRIGEKDTSVDFTLVVEKVNGRWVLHSLEIH” yielded a protease stability score of 0.16. As for “DEREHSVKLAFDKFLEDLHTGNEEMLDRFLDPHVRYHVGDKERHGRENFSRHVAKFLTEYGFKHLHLHMKDWEVQGDKATIEGHVNMHFNGRLIRHNTHLVIWKVNGRWLLESSEER”, the figure is 0.699; as for “DEREKDVEHWFQRLIEAQITGDEEEFDELADPNVLIEINGRELHGRDDFHKYLKRVDHFEIQHFRHHHRHIFDGKVYFNGHSELHVTVGDKRFRYEDEIHHISLKIDGRWILKSVHFA”, 0.635; as for “DEREKEAKTLHQEWFRALQTGNEKRLHELLDPHVRSDVNGVKLHGRHALIKFLVKWLRQIDHNERLEIHDIRFQGDKSEEDVRVVVHIDGRRIDYETHVHLDIYDGVIREVEIDIK”, 1.18. With “DEREKEALDIAREVLHNIMTGDWERLSQLLDPNTRFHEHWNGVHIDLHGRETVSHLLFRHVKHIRIEHVHLEDMVVIGEKAIIHSRRHIEIDGKHMTHHVLLYLLVIDGKIKDVRLHLE” the figure was 0.869; with “DEREKEHETQIRLLIHAIQTGDESMFHKMMDPNVRIQVGDKHIHGREFFVEIFKKLIDRYPGIQLHIRIHSIRFQGEKVTIDERLEIIVGDKEMRFETEIFSQKVNGRWLIEFERIQ”, 0.579.

In turn, “DEREKELERIARELLKALYTGDEDILDKLVDPNVRLELDIDGKTNDIHGMENWFRFYETQWKKLGVDVYDIKDMDVWNGKITINSRVEVNGRYIDTRLILVVIDGRMHEIHIKEK” had a protease stability score of 1.23. For “DEREKETERMLELFIKVLLTGNEHDLMKLADPHVKLDINGREIHGREHLEEMWRHLWIDDSKRREVRNVGEWSHIYGETDGTFNGKKVRDTVEIRLYIVNGKAHRIYIIER”, the protease stability score was 0.655.
